From patent publication US20070224212A1 come the findings set out here.

Test [1] has as its target (Biotin-CCIZN23)3. Nature of the test: BIAcore SPR; (biotin-CCIZN23)3 immobilized on SA chip, D5-scFv in solution. For orientation: In SPR one partner is held on a chip, and binding of the other changes the refractive index at the surface.
The target in test [2] is HIV-1 gp41 (strain 89.6) (HIV-1 strain 89.6). Nature of the test: cell-based or functional assay.
The target of test [3] is HIV-1 gp41 (strain HXB2) (HIV-1 strain HXB2) (UniProt P04578). Nature of the test: cell-based or functional assay.
Test [4] deals with HIV-1 gp41 (strain BaL) (HIV-1 strain BaL). Nature of the test: cell-based or functional assay.
In another test the target is D5 IgG. Nature of the test: AlphaScreen competition: peptide titrated against the binding of D5-IgG to biotinylated-IQN17.
The target of test [5] is HIV-1 gp41 (strain NL4-3) (HIV-1 strain NL4-3). Nature of the test: cell-based or functional assay.
Test [6] deals with HIV-1 gp41 (strain MN-1) (HIV-1 strain MN-1) (UniProt P05877). Nature of the test: cell-based or functional assay.
Test [7] has as its target (Biotin-CCIZN23)3. Nature of the test: BIAcore SPR; D5 IgG immobilized on CM5 chip, (biotin-CCIZN23)3 in solution.
The target in a further test is Biotin-IZN36. Nature of the test: BIAcore SPR; D5 IgG immobilized on CM5 chip, biotin-IZN36 in solution.

As a reminder, the Kd is the concentration at which binding is half-saturated. Read a low Kd as higher affinity. Regarding D5-scFv, the Kd in the test with (Biotin-CCIZN23)3 [1] worked out at 0.2 nM.

T-20 (peptide): the IC50, single-cycle HIV infectivity assay in test [2] stood at 29 nM; in [3] it was 5.3 nM; in test [4] it was 2.4 nM.

On to IZN17 L565M (peptide), for which, in the test with D5 IgG, the IC50 (read off the curve) was found to be 10 nM.

In the case of D5 IgG (antibody), the IC50, single-cycle HIV infectivity assay in test [2] turned out to be 1750 nM; in test [5], 226 nM; in test [3], 310 nM; in test [6] it was 393 nM; in test [4], 93 nM. In addition, in test [3], the IC50, HIV single cycle infectivity assay, HIV-HXB2 was 1350 nM. Moreover, the IC50, HIV-1 single-cycle infectivity assay, strain HXB2 (FIG. 17A) in test [3] is 144 µg/mL. Also, the Kd in the test with (Biotin-CCIZN23)3 [7] came to 0.22 nM; with Biotin-IZN36, 0.17 nM.

In the case of IZN17 Q567R (peptide), the IC50 (read off the curve) with D5 IgG came out at 10 nM.
